We go through 16 sequences from a protein production outcome set (Wang et al. 2014).

This series in a line: label from the status in PepcDB records.
As to “MEDDCEELQVPVGTLTSIGFSISNNNDRDKMSVLEVEAPNQVTDSRLGLPNPDSVCRTCGSKDRKVCEGHFGVINFAYSIINPYFLKEVAALLNKICPGCKYIRKKQFQITEDQPERCRYCTLNTGYPLMKFRVTTKEVFRRSGIVVEVNEESLMKLKKRGVLTLPPDYWSFLPQDSNIDESCLKPTRRIITHAQVYALLLGIDQRLIKKDIPMFNSLGLTSFPVTPNGYRVTEIVHQFNGARLIFDERTRIYKKLVGFEGNTLELSSRVMECMQYSRLFSETVSSSKDSANPYQKKSDTPKLCGLRFMKDVLLGKRSDHTFRTVVVGDPSLKLNEIGIPESIAKRLQVSEHLNQCNKERLVTSFVPTLLDNKEMHVRRGDRLVAIQVNDLQTGDKIFRSLMDGDTVLMNRPPSIHQHSLIAMTVRILPTTSVVSLNPICCLPFRGDFDGDCLHGYVPQSIQAKVELDELVALDKQLINRQNGRNLLSLGQDSLTAAYLVNVEKNCYLNRAQMQQLQMYCPFQLPPPAIIKASPSSTEPQWTGMQLFGMLFPPGFDYTYPLNNVVVSNGELLSFSEGSAWLRDGEGNFIERLLKHDKGKVLDIIYSAQEMLSQWLLMRGLSVSLADLYLSSDLQSRKNLTEEISYGLREAEQVCNKQQLMVESWRDFLAVNGEDKEEDSVSDLARFCYERQKSATLSELAVSAFKDAYRDVQALAYRYGDQSNSFLIMSKAGSKGNIGKLVQHSMCIGLQNSAVSLSFGFPRELTCAAWNDPNSPLRGAKGKDSTTTESYVPYGVIENSFLTGLNPLESFVHSVTSRDSSFSGNADLPGTLSRRLMFFMRDIYAAYDGTVRNSFGNQLVQFTYETDGPVEDITGEALGSLSACALSEAAYSALDQPISLLETSPLLNLKNVLECGSKKGQREQTMSLYLSEYLSKKKHGFEYGSLEIKNHLEKLSFSEIVSTSMIIFSPSSNTKVPLSPWVCHFHISEKVLKRKQLSAESVVSSLNEQYKSRNRELKLDIVDLDIQNTNHCSSDDQAMKDDNVCITVTVVEASKHSVLELDAIRLVLIPFLLDSPVKGDQGIKKVNILWTDRPKAPKRNGNHLAGELYLKVTMYGDRGKRNCWTALLETCLPIMDMIDWGRSHPDNIRQCCSVYGIDAGRSIFVANLESAVSDTGKEILREHLLLVADSLSVTGEFVALNAKGWSKQRQVESTPAPFTQACFSSPSQCFLKAAKEGVRDDLQGSIDALAWGKVPGFGTGDQFEIIISPKVHGFTTPVDVYDLLSSTKTMRRTNSAPKSDKATVQPFGLLHSAFLKDIKVLDGKGIPMSLLRTIFTWKNIELLSQSLKRILHSYEINELLNERDEGLVKMVLQLHPNSVEKIGPGVKGIRVAKSKHGDSCCFEVVRIDGTFEDFSYHKCVLGATKIIAPKKMNFYKSKYLKNGTLESGGFSENP”, the protein production entry is reported as “failed”.
Regarding “MEDELPIIKGKKVILFAPTFRGSGHGTAHYPFFKIDFERLARYCEKNNAVVLFKMHPFVKNRLNIADKHKQYFVDVSDFREVNDILFITDLLISDYSSLIYEYAVFKKPMIFYAFDLEDYITTRDFYEPYESFVPGKIVQSFDALMDALDNEDYEGEKVIPFLDKHFKYQDGRSSERLVRNLFGS”, the protein production entry is “not failed”.
As for “MEDEPGSENEADTIVASPLAKWRIEFSKSFQNYLDRSAPNIVRRWLVTLVAAVIYIYRVYSVYGYFVISYGLATYILNLLIGFLSPKVDPELEALDPDSLPVDESDEYKPFVRRLPEFKFWYAATKAFVVAFVMTFFSFLDVPVFWPILLCYWLVLYSLTMKRLIVHMFKYRYFPFDVRKPVKLLKFLVNSVLTFLRLKKQIQIGHHTRRTVWTRVYLLDFLDIGLANIHRVYAQLHLQQQQNIVKDIAMRDYWRDSIRQFPRKYLFITYQRFDEKSFLVSANHPKSAMEATTRILSTSSALNRLLLLSKLNLKSDPRNINSTNQLLHNAVTRKSSISAARIRCSSLPANANLFRSLFFLTSTFRLENTAVHANPFRSEPNDGVAVWNRAPRIVNGGGNAAIFGGNEGKETTVVLLGWLGAKAKHLRRYVEWYNSRGINAVTFTVDVRDLLRLDLGRRLERRIAEFGNELVNWVSEKEDDGREKCLVFHSFSNTGWLVYGALLESFIGRQDLVERIKGCIIDSGGADPLDTKVCSLFHVTKSFKCYSMVSPLLQDLVLEVEMSILL”, the protein production entry was “failed”.
On to “MEDFNMESDSFEDFWKGEDLSNYSYSSTLPPFLLDAAPCEPESLEINKYFVVIIYALVFLLSLLGNSLVMLVILYSRVGRSVTDVYLLNLALADLLFALTLPIWAASKVNGWIFGTFLCKVVSLLKEVNFYSGILLLACISVDRYLAIVHATRTLTQKRYLVKFICLSIWGLSLLLALPVLLFRRTVYSSNVSPACYEDMGNNTANWRMLLRILPQSFGFIVPLLIMLFCYGFTLRTLFKAHMGQKHRAMRVIFAVVLIFLLCWLPYNLVLLADTLMRTQVIQETCERRNHIDRALDATEILGILHSCLNPLIYAFIGQKFRHGLLKILAIHGLISKDSLPKDSRPSFVGSSSGHTSTTL”, for which the protein production result was “not failed”.
As for “MEDGHISSWWVVDLGEEHQLMCNYYTFRQDGSRAFTRFWKFQGSMDGKTWTDLRVHEDDQTMCKAGQFASWPITAANALLPFRFFRLVLTGPTADTSTPWNFCICYLELYGYFR”, the protein production entry is given as “failed”.
For the sequence “MEDIKIKEIFENIYEVDLGDGLKRIATKSIVKGKKVYDEKIIKIGDEEYRIWNPNKSKLAAAIIKGLKVMPIKRDSKILYLGASAGTTPSHVADIADKGIVYAIEYAPRIMRELLDACAERENIIPILGDANKPQEYANIVEKVDVIYEDVAQPNQAEILIKNAKWFLKKGGYGMIAIKARSIDVTKDPKEIFKEQKEILEAGGFKIVDEVDIEPFEKDHVMFVGIWEGK”, the protein production entry was “not failed”.
With “MEDLEETLFEEFENYSYDLDYYSLESDLEEKVQLGVVHWVSLVLYCLAFVLGIPGNAIVIWFTGFKWKKTVTTLWFLNLAIADFIFLLFLPLYISYVAMNFHWPFGIWLCKANSFTAQLNMFASVFFLTVISLDHYIHLIHPVLSHRHRTLKNSLIVIIFIWLLASLIGGPALYFRDTVEFNNHTLCYNNFQKHDPDLTLIRHHVLTWVKFIIGYLFPLLTMSICYLCLIFKVKKRSILISSRHFWTILVVVVAFVVCWTPYHLFSIWELTIHHNSYSHHVMQAGIPLSTGLAFLNSCLNPILYVLISKKFQARFRSSVAEILKYTLWEVSCSGTVSEQLRNSETKNLCLLETAQ” the entry was “failed”.
On to “MEDQCIISHLAGIFSGVLATDFLRYAVGAGGVYLTVNLALAARLRARKIRAYEPPKGQIGREILASLRTVLIFALNGTLIVVGAEAGLVPIYREIATHGWAYLFFSTTVLIVAHDTWFYWSHRLLHYPPIFRRFHRLHHKSHNPTPFTSYSFDLGEAVVNAIYLPLILLVLPAHPVAILVFVTHMMLRNAIGHSGYEIFPANRRGKPLFDWITTVTHHDLHHAHAGYNLGLYFTWWDRLMGTEHPDYHEAFQKVAKPASWPSVRAVILAFAIFTGIAVSDARAERLSGAYASPGFGVIVRFEPCNANPGLTCGRMIWAWDAAEVPHAQSGDVIVIDLHGDGNVWSGRLKNPENGRMYRGSVVQRSPDTIVLRGCAGPFCTSQIWHSVRALRRALESAE”, for which the protein production entry is on record as “failed”.
The value for “MEDSSLLSPISLLTIVIFLFILNLMMIIQDFSSSFPFRFHLFFSNAYILFTSIRNNKQNTELPIIKKVVVPNRADIKTSVEEVKAIIDDSEALYECLIEEGEEYLLEKNEMMGKEIVKEAFRLFDENQDGFIDENELKHVLSLLGYDECTKMECRKMVKVYDENRDGKIDFYEFVKLIEKSFS” was “failed”.
In the case of “MEDTMSKKAKKIIKIVVISIVTLAITICFGGYMMFHNEIKTLHSIEKLDDYPFYMMEYYGDYGLDEFLEQGGASSDSELVSFVVKRLMKGLPIEINIPSLGCSTFTAVTPENEYLFGRNFDLSYSPAMMVRTKPEKGYESVSMVNLGFIGYGKDKLPDNFFNSITTLAGPYAPLDGMNEKGLSVGVLLIPTEETNQTTNKVDITTTTAIRMILDTCATVEEAVDLLSQYDMHSSANSCYHFQIADANGTSVVVEYINNEMKLVEPKQAYQAATNFLLTPGDYDFGHGQDRYNTLMTTLDKKQGVLSEKEAMNLLKAVSQQPHKTKDGSISATQWSVVYNNTKRTATVSMGMDYQHTYEIKLFE”, the protein production entry is recorded as “failed”.
As to “MEEENNLNSKDTQNTFLKGSAWMTFGSIASRILGALYIIPWYAWMGQYGNIANALTARSYNIYTIFILISTAGIPGAIAKQVAKYNALNEYGIGRRLFHKGLILMAILGVVSAAIMYFASPLLASNGSQSDPRQIAVMRSLSYAILIIPILSIMRGYFQGYADMMPSAMSQFVEQFARVVWMLLTAFVIMQVQHGSYVHAVIQSNLAAAVGAAFGIGLLVWFLFSRRKQLDYLVANSNNRLRVSTTELFAEIIEQAIPFIIIDSGITLFSLVDQYTFHPMIAGLVHASSDAIEDWYALFGLNANKLIMIIVSLASAMAVTAIPLLSAAHTRGDYKSISRQIANTMDLFLFVMIPAAFGMAAISRPIYTVFYGPDQLGSNVLYLSAFTAISLGLFTVLMAILQGLSENGLAIKYLVLGLILKGILQYPMIFLFKIYGPLVATNLGLLVIVLLSLKHLEVQYNFNLNRTSRRLVGITAFSIGMFIIVKLVEMGLGKFLSPDRRISALILVIVAVSIGIIFYGFAALKTDLAQKIMGSKIESILVRLRIHD”, the protein production entry is listed as “failed”.
For the sequence “MEEGDFFNCCFSEISSGMTMNKKKMKKSNNQKRFSEEQIKSLELIFESETRLEPRKKVQVARELGLQPRQVAIWFQNKRARWKTKQLEKEYNTLRANYNNLASQFEIMKKEKQSLVSELQRLNEEMQRPKEEKHHECCGDQGLALSSSTESHNGKSEPEGRLDQGSVLCNDGDYNNNIKTEYFGFEEETDHELMNIVEKADDSCLTSSENWGGFNSDSLLDQSSSNYPNWWEFWS”, the protein production result was “failed”.
Regarding “MEEISGGALTDTLTDIVTWAAKEVGAIALGASLGAIFGTAYAGRWGGVSGGIFGIGSIGQGVGMIAGVILGGVCFGIAAGIVGWDMTLDYAQGVMDAIYDGTLNFWSN”, the protein production result is reported as “failed”.
“MEELKTKGEHGNEEAKKAPATGETETVEKNVAIRRTSTASSEQDLDTFLLGDLEDSDEAPDDGDGSLEDDFDKIGNSDVEDEKQSSKATTNAGNEVSC”: the protein production entry is given as “failed”.
For “MEELQYFPYEKFRPNQREFIEIVKEAVKRGENLIVEAPTGFGKTISVLAGVLPYAISLGYKVVYLARTHKQMDRVIEELRKIGEKSEVSGIEFRSRKDLCLHAYIQTFAQDAYTSMIVCKSLRKLGKCKYYENLKEKRDRVDEIVKFFLSFPPFPREVIEYSELLELCPYEITKKVGEKANVVVASYLYMISPPIRQAFLENLGVDYSDLIVIFDEAHNLPDQAISALSDRLSVRSIERAIKEAEEYGEKDIENFLSILLRGLEILYKEKLENYESEEIPIRPEEVFLHPASILGWRGRDIGMMLEDMIEVGDAIREDRIERNLPPRSYVGRVGEFLWNWLSLRDREDYLHLFTKEKGLALELVALDPSVALDFLEEVHSAIFMSGTLSPLEAFRDIIGVNARLKKFPRIVKRENAIVLVARDVSTRGIERSPPLYKRIAEYIFEAVKNTPKNVGVFTASYEVLEGVLSTNVHIKIEEEVGKKVFIEKKDAPSRENDEMIREFKEESKGKGAVLFGVMGGRNSEGQDYSGDEMNGVILVGIPYARPTPRVQAQTRYFEKKFPGKGRYYGYILPAHRKLAQAAGRVHRSENEKGSIVILDYRVLWKNVKKDLPDWMVETMIPVTLPTLRIKLRRFWRERLNE”, the protein production result is “failed”.
For “MEELSSVGEQVFAAECILSKRLRKGKLEYLVKWRGWSSKHNSWEPEENILDPRLLLAFQKKEHEKEVQNRKRGKRPRGRPRKLTAMSSCSRRSKLKEPDAPSKSKSSSSSSSSTSSSSSSDEEDDSDLDAKRGPRGRETHPVPQKKAQILVAKPELKDPIRKKRGRKPLPPEQKATRRPVSLAKVLKTARKDLGAPASKLPPPLSAPVAGLAALKAHAKEACGGPSAMATPENLASLMKGMASSPGRGGISWQSSIVHYMNRMTQSQAQAASRLALKAQATNKCGLGLDLKVRTQKGELGMSPPGSKIPKAPSGGAVEQKVGNTGGPPHTHGASRVPAGCPGPQPAPTQELSLQVLDLQSVKNGMPGVGLLARHATATKGVPATNPAPGKGTGSGLIGASGATMPTDTSKSEKLASRAVAPPTPASKRDCVKGSATPSGQESRTAPGEARKAATLPEMSAGEESSSSDSDPDSASPPSTGQNPSVSVQTSQDWKPTRSLIEHVFVTDVTANLITVTVKESPTSVGFFNLRHY”, the protein production result is “failed”.
